Results on two molecules are retold here after PMC3695229.

The target of this assay is human TGF-β2 (human). The experiment in a line: SPR; Biacore 2000; biotinylated ligands immobilised on streptavidin-coated CM5 chip, TGFR-3-ZP variants as analytes; 25°C, HBS500 (10 mM HEPES pH 7.4, 500 mM NaCl, 3.4 mM EDTA, 0.005% P20); apparent affinities from equilibrium binding.

B1: TGFR-3-ZP(234) (domain or fragment)
chain: REPEEVQGGVNIALSVKCDNEKMVVAVDKDSFQTNGYSGMELTLLDPSCKAKMNGTHFVLESPLNGCGTRHRRSAPDGVVYYNSIVVQAPSPGDSSGWPDGYEDLESGDNGFPGDTDEGETAPLSRAGVVVFQCSLRQLRSPSGFQDQLDGQATFNMELYNTDLFLVPSPGVFSVAENEHVYVEVSVTKADQDLGFAIQTCFISPYSNPDRMSDYTIIENICPKDDSVKFYSSKRVHFPIPHAEVDKKRFSFVFKSVFQTSLLFLHCELTLCSRNKGSQKLPKCVTPDDACTSLDATMIWTMMQNKKTFTKPLAVVLQVDYKENVPNMKESSPVPPPPQIFHGLD
modifications: one remaining potential N-glycosylation site (N491)
For the molecule B1, the Kd stood at 2.7 µM.

B2: murine TGFR-3-ZP (recombinant ZP domain of TGF-β receptor type 3, residues 438-782, including the EHP) (domain or fragment)
chain: REPEEVQGGVNIALSVKCDNEKMVVAVDKDSFQTNGYSGMELTLLDPSCKAKMNGTHFVLESPLNGCGTRHRRSAPDGVVYYNSIVVQAPSPGDSSGWPDGYEDLESGDNGFPGDTDEGETAPLSRAGVVVFNCSLRQLRSPSGFQDQLDGNATFNMELYNTDLFLVPSPGVFSVAENEHVYVEVSVTKADQDLGFAIQTCFISPYSNPDRMSDYTIIENICPKDDSVKFYSSKRVHFPIPHAEVDKKRFSFVFKSVFNTSLLFLHCELTLCSRNKGSQKLPKCVTPDDACTSLDATMIWTMMQNKKTFTKPLAVVLQVDYKENVPNMKESSPVPPPPQIFHGLD
modifications: secretory glycoprotein; four potential N-glycosylation sites (positions 491, 570, 589 and 696)
Consider B2, for which the Kd was found to be 2.4 µM.
